Test results taken from patent publication US20250388669A1 (published 2025).

What was measured:
CD40 = CD40 (UniProt P25942 21-193, limits assumed); experiment: FCM or ELISA, graded
PD-1 (binding assay) = PD-1 (binding assay) (UniProt Q15116 25-167, limits assumed); experiment: FCM or ELISA, graded
PD-1 (binding assay), sequence (Q15116 25-167 limits assumed): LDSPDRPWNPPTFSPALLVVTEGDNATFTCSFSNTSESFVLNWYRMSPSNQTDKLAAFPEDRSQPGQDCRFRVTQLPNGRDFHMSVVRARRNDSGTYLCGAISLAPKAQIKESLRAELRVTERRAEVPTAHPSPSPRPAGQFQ

CD40, sequence (P25942 21-193 limits assumed): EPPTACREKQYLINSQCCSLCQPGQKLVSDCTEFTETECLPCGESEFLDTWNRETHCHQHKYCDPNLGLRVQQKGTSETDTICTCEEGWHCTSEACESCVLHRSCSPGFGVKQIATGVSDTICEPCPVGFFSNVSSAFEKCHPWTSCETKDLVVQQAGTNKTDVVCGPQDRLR

binding result (CD40) | binding result (PD-1 (binding assay)) | Binder
binds | binds | Ly2405 (bispecific antibody, human IgG1, kappa, PD-1 Fabs (Ly516) x terminal CD40 Fv (TM383)) heavy 1: not shown heavy 2: QVTLKESGPALVKPTQTLTLTCTFSGFSLSTSGTCVSWIRQPPGKALEWLATICWEDSKGYNPSLKSRLTISKDTSKNQAVLTMTNMDPVDTATYYCARREDSGYFWFPYWGQGTLVTVSSASTKGPSVFPLAPSSKSTSGGTAALGCLVKDYFPEPVTVSWNSGALTSGVHTFPAVLQSSGLYSLSSVVTVPSSSLGTQTYICNVNHKPSNTKVDKKVEPKSCDKTHTCPPCPAPEAAGPSVFLFPPKPKDTLMISRTPEVTCVVVDVSHEDPEVKFNWYVDGVEVHNAKTKPREEQYNSTYRVVSVLTVLHQDWLNGKEYKCKVSNKALPAPIEKTISKAKGQPREPQVYTLPPSREEMTKNQVSLSCAVKGFYPSDIAVEWESNGQPENNYKTTPPVLDSDGSFFLVSKLTVDKSRWQQGNVFSCSVMHEALHNRFTQKSLSLSPGGGGGSGGGGSGGGGSGGGGSDIQMTQSPSSVSASVGDRVTITCRASQGIYSWLAWYQQKPGKAPNLLIYTASTLQSGVPSRFSGSGSGTDFTLTISSLQPEDFATYYCQQANIFPLTFGGGTKVEIK light: NIQMTQSPSSLSASVGDRVTITCKAGQNVNNYLAWYQQKPGKAPKVLIFNANSLQTGVPSRFSGSGSGTDFTLTISSLQPEDFATYYCQQYNSWPTFGGGTKVEIKRTVAAPSVFIFPPSDEQLKSGTASVVCLLNNFYPREAKVQWKVDNALQSGNSQESVTEQDSKDSTYSLSSTLTLSKADYEKHKVYACEVTHQGLSSPVTKSFNRGEC
binds | binds | Ly2409 (bispecific antibody, PD-1 Fabs (Ly516) x central CD40 Fv (TM559)) heavy 1: QVTLKESGPALVKPTQTLTLTCTFSGFSLSTSGTCVSWIRQPPGKALEWLATICWEDSKGYNPSLKSRLTISKDTSKNQAVLTMTNMDPVDTATYYCARREDSGYFWFPYWGQGTLVTVSSASTKGPSVFPLAPSSKSTSGGTAALGCLVKDYFPEPVTVSWNSGALTSGVHTFPAVLQSSGLYSLSSVVTVPSSSLGTQTYICNVNHKPSNTKVDKKVEPKSCGGGGSGGGGSGGGGSGGGGSEVQLVESGGGLVQPGGSLRLSCAASGFTFTNYGLHWVRQAPGKGLEWVSSISPSGGVTYYRDSVKGRFTISRDNSKNTLYLQMNSLRAEDTAVYYCAKPFLGWGGANWIAHWGQGTLVTVSSGGGGSDKTHTCPPCPAPEAAGPSVFLFPPKPKDTLMISRTPEVTCVVVDVSHEDPEVKFNWYVDGVEVHNAKTKPREEQYNSTYRVVSVLTVLHQDWLNGKEYKCKVSNKALPAPIEKTISKAKGQPREPQVYTLPPSREEMTKNQVSLWCLVKGFYPSDIAVEWESNGQPENNYKTTPPVLDSDGSFFLYSKLTVDKSRWQQGNVFSCSVMHEALHNHYTQKSLSLSPG heavy 2: QVTLKESGPALVKPTQTLTLTCTFSGFSLSTSGTCVSWIRQPPGKALEWLATICWEDSKGYNPSLKSRLTISKDTSKNQAVLTMTNMDPVDTATYYCARREDSGYFWFPYWGQGTLVTVSSASTKGPSVFPLAPSSKSTSGGTAALGCLVKDYFPEPVTVSWNSGALTSGVHTFPAVLQSSGLYSLSSVVTVPSSSLGTQTYICNVNHKPSNTKVDKKVEPKSCGGGGSGGGGSGGGGSGGGGSDIQMTQSPSSLSASVGDRVTITCLASEDISNDLAWYQQKPGKAPKLLIYFVDRLLDGVPSRFSGSGSGTDFTLTISSLQPEDFATYYCQQSYKYPPTFGQGTKLEIKGGGGSDKTHTCPPCPAPEAAGPSVFLFPPKPKDTLMISRTPEVTCVVVDVSHEDPEVKFNWYVDGVEVHNAKTKPREEQYNSTYRVVSVLTVLHQDWLNGKEYKCKVSNKALPAPIEKTISKAKGQPREPQVYTLPPSREEMTKNQVSLSCAVKGFYPSDIAVEWESNGQPENNYKTTPPVLDSDGSFFLVSKLTVDKSRWQQGNVFSCSVMHEALHNRFTQKSLSLSPG light: NIQMTQSPSSLSASVGDRVTITCKAGQNVNNYLAWYQQKPGKAPKVLIFNANSLQTGVPSRFSGSGSGTDFTLTISSLQPEDFATYYCQQYNSWPTFGGGTKVEIKRTVAAPSVFIFPPSDEQLKSGTASVVCLLNNFYPREAKVQWKVDNALQSGNSQESVTEQDSKDSTYSLSSTLTLSKADYEKHKVYACEVTHQGLSSPVTKSFNRGEC
